These are literature values, as cited in article PMC6474356.

pKd: −log10 of the molar value. Where two headings read alike, the source gives them in different places.

The target in series [1] is calmodulin (Homo sapiens) (UniProt P0DP23).
For series [2] the target is unchanged. The source holds these as a separate data set.

For eEF-2K (from UniProt O00418), in series [1], the pKd (usually the Kd on a negative log10 scale, so that one unit is a factor of ten) is 7.77.

Consider “eEF-2K CBD peptide CBD (from UniProt O00418)”, for which, in series [2], the pKd is 6.61.
